Here are results for 8 molecules from US20250270323A1 (NEXTPOINT THERAPEUTICS, published 2025).

Assay [1] deals with T1, biotinylated human HHLA2-Fc (human, UniProt Q9UM44 23-344, limits assumed, biotinylated (sites not given)).
T1 construct: It may be the same protein as m8 with biotin added; not shown: Fc part
T1 sequence (looked up): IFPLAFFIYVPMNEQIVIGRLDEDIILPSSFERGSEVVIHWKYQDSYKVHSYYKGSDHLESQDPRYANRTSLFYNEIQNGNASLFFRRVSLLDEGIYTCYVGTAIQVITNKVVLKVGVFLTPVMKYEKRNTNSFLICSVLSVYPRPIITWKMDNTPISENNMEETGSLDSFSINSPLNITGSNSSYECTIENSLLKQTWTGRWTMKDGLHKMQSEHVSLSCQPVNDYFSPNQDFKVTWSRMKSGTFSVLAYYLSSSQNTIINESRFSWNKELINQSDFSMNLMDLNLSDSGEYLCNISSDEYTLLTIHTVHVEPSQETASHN
The assay is described as follows: flow cytometry blocking assay; HHLA2-Fc binding to 300.19 KIR3DL3 cells with 10 ug/mL control IgG, against antigen only.

For assay [2], the target named is human HHLA2 over-expressed on 300.19 mouse pre-B leukemic cells (human) (UniProt Q9UM44). In words: flow cytometry; TMIGD2-Fc binding to 300.19 HHLA2 cells with 10 ug/mL control IgG, against antigen only.
For assay [3] the target is unchanged. The assay is described as follows: flow cytometry; 15 ug/ml antibody on 300.19-human HHLA2 cells, PE-conjugated anti-human secondary antibody.
Assay [4] addresses T1, biotinylated human HHLA2-Fc. In words: flow cytometry blocking assay; 10 ug/mL control IgG with 4 ug/mL biotinylated human HHLA2-Fc, added to 300.19 KIR3DL3 cells. A general note: In flow cytometry, cells or beads pass a laser one at a time.
In assay [5] the target is human HHLA2 over-expressed on 300.19 mouse pre-B leukemic cells (human) (UniProt Q9UM44). In words: flow cytometry; 10 ug/mL control IgG with 4 ug/mL biotinylated human TMIGD2-Fc, added to 300.19 HHLA2 cells.
The target is the same in assay [6]. The assay is described as follows: flow cytometry; 10 ug/mL IgG with 4 ug/mL biotinylated human TMIGD2-Fc, added to 300.19 HHLA2 cells; streptavidin-Alexa Fluor 633; binding is enhanced.
The target is the same in assay [7]. The assay is described as follows: flow cytometry; TMIGD2-Fc binding to 300.19 HHLA2 cells with 10 ug/mL IgG, against antigen only; binding is enhanced.
Assay [8] has as its target T2, recombinant HHLA2-Fc (UniProt Q9UM44 23-344, limits assumed).
T2 construct: Antigen in solution in the Octet assay; also called HHLA2-Fc antigen; not shown: Fc part
T2 sequence (looked up): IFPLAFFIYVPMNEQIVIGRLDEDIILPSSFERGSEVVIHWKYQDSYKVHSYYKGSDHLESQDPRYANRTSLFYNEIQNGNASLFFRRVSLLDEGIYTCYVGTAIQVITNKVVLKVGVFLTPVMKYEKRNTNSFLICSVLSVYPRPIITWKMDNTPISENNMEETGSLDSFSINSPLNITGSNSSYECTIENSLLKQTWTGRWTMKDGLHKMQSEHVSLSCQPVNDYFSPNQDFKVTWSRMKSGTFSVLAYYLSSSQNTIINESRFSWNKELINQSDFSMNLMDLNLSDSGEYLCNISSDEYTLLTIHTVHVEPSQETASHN
The assay is described as follows: BLI (Octet, ForteBio); IgG captured on AHC sensor, 100 nM HHLA2-Fc in solution; avid. The text has this: The avid affinity of the anti-HHLA2 antibodies for recombinant HHLA2-Fc was investigated. The Octet system from ForteBio was used to measure avid affinity of the anti-HHLA2 antibodies for recombinant HHLA2-Fc.

Assay [9] deals with T1, biotinylated human HHLA2-Fc. In words: flow cytometry blocking assay; HHLA2-Fc binding to 300.19 KIR3DL3 cells with 10 ug/mL IgG, against antigen only. The procedure:
The ability of the anti-HHLA2 antibodies to block binding of HHLA2 to KIR3DL3 and enhance binding of HHLA2 to TMIGD2 was investigated. […] Alexa Fluor 633 conjugated streptavidin was added as a secondary detection reagent.

In assay [10] the target is human HHLA2 over-expressed on 300.19 mouse pre-B leukemic cells (human) (UniProt Q9UM44). In words: flow cytometry on 300.19 cells over-expressing human HHLA2, antibody titration, gMFI (aHu-APC).
Target sequence in this assay (Q9UM44 23-414): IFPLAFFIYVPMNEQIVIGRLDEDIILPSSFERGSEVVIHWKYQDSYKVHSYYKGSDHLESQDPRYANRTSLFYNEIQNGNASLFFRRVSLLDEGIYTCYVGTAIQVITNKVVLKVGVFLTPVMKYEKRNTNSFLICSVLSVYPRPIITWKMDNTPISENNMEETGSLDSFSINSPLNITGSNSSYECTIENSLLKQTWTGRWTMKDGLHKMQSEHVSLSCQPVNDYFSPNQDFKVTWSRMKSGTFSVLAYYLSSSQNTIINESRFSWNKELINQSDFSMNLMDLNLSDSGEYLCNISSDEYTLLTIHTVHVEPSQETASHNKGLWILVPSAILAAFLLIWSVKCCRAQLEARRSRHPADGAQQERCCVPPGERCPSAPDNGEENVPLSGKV
The target in assay [11] is T1, biotinylated human HHLA2-Fc. The assay is described as follows: flow cytometry blocking assay, antibody titration: binding of human HHLA2-Fc to 300.19 cells over-expressing human KIR3DL3 (blocked partner), gMFI (anti-SA-APC).
For assay [12], the target named is T3, recombinant HHLA2-His (UniProt Q9UM44 23-344, limits assumed).
T3 construct: Analyte in the Biacore assay; also called HHLA2-His analyte; not shown: His tag
T3 sequence (looked up): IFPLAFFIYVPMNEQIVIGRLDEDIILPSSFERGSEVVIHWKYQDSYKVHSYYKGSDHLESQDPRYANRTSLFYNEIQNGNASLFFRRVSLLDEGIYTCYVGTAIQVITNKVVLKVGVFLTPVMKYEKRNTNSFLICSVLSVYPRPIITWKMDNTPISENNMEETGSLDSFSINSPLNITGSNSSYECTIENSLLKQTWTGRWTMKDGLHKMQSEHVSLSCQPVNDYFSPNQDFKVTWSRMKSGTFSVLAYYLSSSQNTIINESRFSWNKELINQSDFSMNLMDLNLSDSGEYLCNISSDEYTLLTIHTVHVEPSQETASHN
In words: SPR (Biacore, Cytiva); antibody captured on CM5 chip, HHLA2-His as analyte; monovalent. The protocol: Monovalent affinity was determined by capturing each antibody on an CM5 chip, followed by various concentrations of the HHLA2-His analyte.
(In SPR one partner is held on a chip, and binding of the other changes the refractive index at the surface.)

For assay [13], the target named is human HHLA2 over-expressed on 300.19 mouse pre-B leukemic cells (human) (UniProt Q9UM44). The assay is described as follows: flow cytometry, antibody titration: binding of human TMIGD2-Fc (enhanced ligand) to 300.19 cells over-expressing human HHLA2, % TMIGD2-Fc binding normalized to isotype.

Isotype control (antibody): the Antigen Binding MFI Ratio (IgG blocked/antigen only) in assay [1] turned out to be 0.9; in [2], 1.6. Besides, the 300.19-human HHLA2 cells FOB (fold over background) (fold over background) in assay [3] is 22. Further, the 300.19-human HHLA2 cells MFI in assay [3] is 3290 MFI. In assay [4], this molecule gave a Human HHLA2-Fc Binding MFI for 300.19 KIR3DL3 cells of 6990 MFI. The molecule also had a Human TMIGD2-Fc Binding MFI for 300.19 HHLA2 cells in assay [5] of 943 MFI.

B1: Ab-60665 (antibody, human IgG4 S228P, kappa, V domains shown)
VH: QVQLVQSGAEVKKPGSSVKVSCKASGGTSSNYAISWVRQAPGQGLEWMGGIIPIFGTANYAQKFQGRVTITADESTSTAYMELSSLRSEDTAVYYCARSGTIWHDIWGQGTMVTVSS
VL: EIVLTQSPATLSLSPGERATLSCRASQSVSSYLAWYQQKPGQAPRLLIYDSSNRATGIPARFSGSGSGTDFTLTISSLEPEDFAVYYCQQVVHWPPTFGGGTKVEIKR
notes: tested as IgG
As usually defined, the Kd is a measure of binding affinity in units of concentration. As usually defined, the koff is a measure of how fast the partners let go of each other. The kon is a measure of how fast the partners come together. For B1, in [6], the Human TMIGD2-Fc Binding MFI for 300.19 HHLA2 cells was determined as 1860 MFI. The Antigen Binding MFI Ratio (IgG blocked/antigen only) in assay [7] worked out at 3.1. For the same molecule, in assay [8], the Kd worked out at 0.971 nM, the koff amounted to 0.000189 s⁻¹ and the kon was 194000 M⁻¹ s⁻¹. Further, the “Antigen Binding MFI Ratio (IgG blocked/antigen only)” value in [9] stood at 0 ratio. In assay [3], this molecule yielded a 300.19-human HHLA2 cells FOB (fold over background) (fold over background) of 820 and a 300.19-human HHLA2 cells MFI of 115000 MFI.

B2: Ab-60638 (antibody, human IgG4 S228P, kappa, V domains shown)
VH: QVQLVQSGAEVKKPGASVKVSCKASGYTFTSYAMHWVRQAPGQRLEWMGWINAGTGNTKYSQKFQGRVTITRDTSASTAYMELSSLRSEDTAVYYCARDLPHRGAFDPWGQGTLVTVSS
VL: EIVLTQSPGTLSLSPGERATLSCRASQSVSSDYLAWYQQKPGQAPRLLIYGASSRATGIPDRFSGSGSGTDFTLTISRLEPEDFAVYYCQLYGSAPRTFGGGTKVEIKR
notes: tested as IgG
With B2, in [6], the Human TMIGD2-Fc Binding MFI for 300.19 HHLA2 cells is 2730 MFI. The Antigen Binding MFI Ratio (IgG blocked/antigen only) in assay [7] was found to be 4.5. Besides, in [8], the dissociation constant (Kd) came out at 1.42 nM, the koff was found to be 0.000469 s⁻¹ and the kon turned out to be 330000 M⁻¹ s⁻¹. The “Antigen Binding MFI Ratio (IgG blocked/antigen only)” value in assay [9] is 0 ratio. In [3], this molecule yielded a 300.19-human HHLA2 cells FOB (fold over background) (fold over background) of 394 and a 300.19-human HHLA2 cells MFI of 46900 MFI.

B3: Ab-65890 (antibody, human IgG1, V domains shown)
VH: QVQLVQSGAEVKKPGASVKVSCKASGYTFNSYRMHWVRQAPGQRLEWMGSIPAGTGNTVYSQKFQGRVTITRDTSASTAYMELSSLRSEDTAVYYCARDRGGYYYDSWDDWGQGTLVTVSS
VL: DIQMTQSPSSLSASVGDRVTITCRASQSISSYLNWYQQKPGKAPKLLIYGASSLQSGVPSRFSGSGSGTDFTLTISSLQPEDFATYYCQQVPFEPPTFGGGTKVEIK
notes: tested as IgG
The term EC50 (read off the curve) denotes the concentration needed to bring the measured effect to its halfway point. For B3, the half-maximal effective concentration (EC50 (read off the curve)) in [10] came out at 0.1 µg/mL. For the same molecule, the “IC50 (read off the curve)” value in assay [11] was roughly 1 µg/mL. Also, in assay [12], the Kd is 0.765 nM, the off-rate (koff) worked out at 9.28e-05 s⁻¹ and the kon came to 123000 M⁻¹ s⁻¹.

B4: Ab-65886 (antibody, human IgG1, kappa, V domains shown)
VH: QVQLVQSGAEVKKPGASVKVSCKASGYTFEKYAMHWVRQAPGQRLEWMGFIPAGTGNTKYSQKFQGRVTITRDTSASTAYMELSSLRSEDTAVYYCARDRGGYYYDSWDDWGQGTLVTVSS
VL: DIQMTQSPSSLSASVGDRVTITCRASQSISSYLNWYQQKPGKAPKLLIYGASSLQSGVPSRFSGSGSGTDFTLTISSLQPEDFATYYCQQVAFTPPTFGGGTKVEIKR
notes: tested as IgG
With B4, the EC50 (read off the curve) in assay [10] came out at 0.1 µg/mL. For the same molecule, the “IC50 (read off the curve)” value in [11] was roughly 1 µg/mL. Moreover, in assay [12], the Kd stood at 11.3 nM, the off-rate constant (koff) is 0.00688 s⁻¹ and the on-rate constant (kon) was determined as 609000 M⁻¹ s⁻¹.

B5: Ab-65889 (antibody, human IgG1, kappa, V domains shown)
VH: QVQLVQSGAEVKKPGASVKVSCKASGYTFASYKMHWVRQAPGQRLEWMGDIPAGTGNTHYSQKFQGRVTITRDTSASTAYMELSSLRSEDTAVYYCARDRGGYYYDSWDDWGQGTLVTVSS
VL: DIQMTQSPSSLSASVGDRVTITCRASQSISSYLNWYQQKPGKAPKLLIYGASSLQSGVPSRFSGSGSGTDFTLTISSLQPEDFATYYCQQVPFEPPTFGGGTKVEIKR
notes: tested as IgG
Take B5: in [13], the concentration giving a half-maximal response (EC50 (read off the curve)) stood at 0.1 µg/mL. In [10], this molecule yielded a concentration for a half-maximal effect (EC50 (read off the curve)) of 0.1 µg/mL. For the same molecule, in assay [11], the “IC50 (read off the curve)” value was roughly 1 µg/mL. In assay [12], the Kd worked out at 0.894 nM, the koff was 0.000114 s⁻¹ and the on-rate constant (kon) worked out at 128000 M⁻¹ s⁻¹.

B6: Ab-65887 (antibody, human IgG1, kappa, V domains shown)
VH: QVQLVQSGAEVKKPGASVKVSCKASGYTFEQYAMHWVRQAPGQRLEWMGFIPAGTGNTKYSQKFQGRVTITRDTSASTAYMELSSLRSEDTAVYYCARDRGGYWYDSWDDWGQGTLVTVSS
VL: DIQMTQSPSSLSASVGDRVTITCRASQSISSYLNWYQQKPGKAPKLLIYGASSLQSGVPSRFSGSGSGTDFTLTISSLQPEDFATYYCQQVVFTPPTFGGGTKVEIKR
notes: tested as IgG
In the case of B6, in [10], the half-maximal effective concentration (EC50 (read off the curve)) came to 0.1 µg/mL. Moreover, the “IC50 (read off the curve)” value in [11] was roughly 1 µg/mL. Further, in assay [12], the equilibrium dissociation constant (Kd) was found to be 16.5 nM, the dissociation rate constant (koff) was 0.0148 s⁻¹ and the kon worked out at 900000 M⁻¹ s⁻¹.

B7: Ab-65885 (antibody, human IgG1, kappa, V domains shown)
VH: QVQLVQSGAEVKKPGASVKVSCKASGYTFDSYKMHWVRQAPGQRLEWMGYIPAGTGNTKYSQKFQGRVTITRDTSASTAYMELSSLRSEDTAVYYCARDRGGYYYDSWDDWGQGTLVTVSS
VL: DIQMTQSPSSLSASVGDRVTITCRASQSISSYLNWYQQKPGKAPKLLIYGASSLQSGVPSRFSGSGSGTDFTLTISSLQPEDFATYYCQQVAFTPPTFGGGTKVEIKR
notes: tested as IgG
Consider B7, for which the concentration for a half-maximal effect (EC50 (read off the curve)) in [10] turned out to be 0.1 µg/mL. The “IC50 (read off the curve)” value in assay [11] was roughly 1 µg/mL. Besides, in assay [12], the dissociation constant (Kd) came out at 5.82 nM, the off-rate (koff) was found to be 0.00205 s⁻¹ and the kon worked out at 325000 M⁻¹ s⁻¹.
